The koff is the first-order rate constant of dissociation. In general, kon refers to a measure of how fast the partners come together.

Experiment [1] has as its target T1, hCD33 and hCD123 immobilized simultaneously on one switchSENSE chip (ratio 2:1, CD33:CD123) (human, UniProt P20138 18-259; P26951 19-305, limits assumed).
T1 construct: Not a complex: two separate ligands on one surface; used for avidity values and for off-rates; also called both ligands; both targets attached to the surface of the chip
In words: switchSENSE, hCD33 and hCD123 co-immobilised 2:1; panel headed CD33, column KD2 (avidity, simultaneous binding of CD33 and CD123 per paragraph 696). The method, then: (§1) The designed ankyrin repeat proteins: DARPin® protein #20, DARPin® protein #21, DARPin® protein #22, DARPin® protein #27, DARPin® protein #40 and DARPin® protein #41 were tested in a concentration of 0.16 and 64 nM (in a buffer PE140 containing 10 mM Na2HPO4/NaH2PO4, 140 mM NaCl, 0.05% Tween20, 50 μM EDTA, 50 μM EGTA) for binding against two ligands hCD33 and hCD123, which both were immobilized simultaneously to DNA nanolevers, on the surface, at a pre-defined ratio (2:1, CD33:CD123) and 10% density (100:50) on an ADP-48-1-0 chip, where 100% density 1000 receptors/μm2 (preincubated R1-B48-CD123 and G1-A48-CD33 (100 nM) diluted in cNL-48 (dark)). Briefly the following steps were performed: [0724] Conjugation. Amine coupling of the two ligands (CD33 and CD123) to the DNA nanolever (A48, B48, respectively) and purification of the conjugates using the proFIRE® solution (Dynamic Biosensors GmbH) at 25° C. [0725] Evaluation of all the combined affinity and avidity of all different proteins to both ligands attached on the surface of an ADP chip using a DRX+ instrument (dynamic BIOSENSORS). [0726] Statistical analysis (repeatability from 2 to 5 times) including regeneration of the chip surface every concentration analyzed and long dissociation times and data were fitted using a bi-exponential global fit.

For experiment [2], the target named is T1, hCD33 and hCD123 immobilized …. Nature of the experiment: switchSENSE, CD33 and CD123 on one chip; slow phase (avidity); slow phase (avidity).
The target of experiment [3] is T2, hCD33 (recombinant, construct not stated) (human, UniProt P20138 18-259, limits assumed).
T2 construct: also called CD33 (Ligand 1)
Nature of the experiment: switchSENSE, CD33 and CD123 on one chip; kon to CD33. The method, then:
as §1

Experiment [4] addresses T1, hCD33 and hCD123 immobilized …. In words: switchSENSE, hCD33 and hCD123 co-immobilised 2:1; panel headed CD123, column KD2 (avidity, simultaneous binding of CD33 and CD123 per paragraph 696). Here is the method:
as §1

For experiment [5], the target named is T3, hCD123 (recombinant, construct not stated) (human, UniProt P26951 19-305, limits assumed).
T3 construct: also called CD123 (Ligand 2)
T3 sequence (looked up): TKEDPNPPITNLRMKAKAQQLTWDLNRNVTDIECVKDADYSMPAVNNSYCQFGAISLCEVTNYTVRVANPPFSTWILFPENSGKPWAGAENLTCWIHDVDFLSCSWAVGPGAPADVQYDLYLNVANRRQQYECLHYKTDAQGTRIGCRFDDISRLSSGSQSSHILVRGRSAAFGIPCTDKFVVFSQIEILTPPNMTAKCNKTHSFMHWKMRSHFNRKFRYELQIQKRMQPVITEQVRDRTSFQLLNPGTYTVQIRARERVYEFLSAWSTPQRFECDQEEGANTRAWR
In words: switchSENSE, CD33 and CD123 on one chip; kon to CD123. Here is the method:
as §1

T2 sequence (P20138 18-259 limits assumed): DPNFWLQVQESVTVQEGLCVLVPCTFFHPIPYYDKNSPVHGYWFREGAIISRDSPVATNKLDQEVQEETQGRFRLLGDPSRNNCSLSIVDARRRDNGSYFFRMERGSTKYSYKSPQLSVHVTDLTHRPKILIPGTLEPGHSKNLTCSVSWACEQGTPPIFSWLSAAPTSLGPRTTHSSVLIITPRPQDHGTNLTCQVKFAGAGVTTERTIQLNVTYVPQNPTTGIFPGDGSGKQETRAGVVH

B1: DARPin® protein #27 (designed binder)
chain: DLGKKLLEAALEGQLDEVRELLKAGADVNAKDQEGYTPLHLAAALGHLEIVEVLLKAGADVNAKDSIGRTPLHLAAYKGHLEIVEVLLKAGADVNAQDLLGETPADLAAEQGHQDIAEVLQKAAGSPTPTPTTPTPTPTTPTPTPTGSDLGVKLLLAASRGQLDEVRILLKAGADVNAKDIDEGYTPLHIAAYYGHLEIVEVLLKAGADVNAKDRYGKTPLHLAAISGHLEIVEVLLKAGADVNAQDDKGDTPADLAADYGHQDIAEVLQKAAGSPTPTPTTPTPTPTTPTPTPTGSDLGQKLLEAAWAGQDDEVRELLKAGADVNAKNSRGWTPLHTAAQTGHLEIFEVLLKAGADVNAKDDKGVTPLHLAAALGHLEIVEVLLKAGADVNAQDSWGTTPADLAAKYGHEDIAEVLQKAA
notes: CD123-CD33-CD3; also called αCD123-aCD33-αCD3_1; not shown: N-terminal His-tag
For the molecule B1, the Kd in experiment [1] turned out to be 170 pM; in experiment [4] it was 300 pM. The dissociation rate constant (koff) in experiment [2] was ~0.001 s⁻¹. The kon was ~1e+06 M⁻¹ s⁻¹ in experiment [3] and ~1e+07 M⁻¹ s⁻¹ in experiment [5].

The record behind these values is patent US20240254229A1 (Molecular Partners, published 2024).
